Assay results as given in US20250213715A1, “ANTI-CSPG4 BINDING AGENTS, CONJUGATES THEREOF AND METHODS OF USING THE SAME” (Ardeagen Corporation, priority 2020, published 2025).

How the values were obtained:
[1] = molecular target: T1, CSPG4 (chondroitin sulfate proteoglycan 4) on human tumor cell lines (human, UniProt Q6UVK1 30-2322); assay: flow cytometry on A375 melanoma cells, 6-point dose curve, anti-hIgG-AF488
T1 construct: Endogenous CSPG4 on human cell lines (A2058, Malme-3M, A375, SW1353, NCI-H2052); also called HMW MAA; MCSP
T1 sequence (Q6UVK1 30-2322 limits assumed): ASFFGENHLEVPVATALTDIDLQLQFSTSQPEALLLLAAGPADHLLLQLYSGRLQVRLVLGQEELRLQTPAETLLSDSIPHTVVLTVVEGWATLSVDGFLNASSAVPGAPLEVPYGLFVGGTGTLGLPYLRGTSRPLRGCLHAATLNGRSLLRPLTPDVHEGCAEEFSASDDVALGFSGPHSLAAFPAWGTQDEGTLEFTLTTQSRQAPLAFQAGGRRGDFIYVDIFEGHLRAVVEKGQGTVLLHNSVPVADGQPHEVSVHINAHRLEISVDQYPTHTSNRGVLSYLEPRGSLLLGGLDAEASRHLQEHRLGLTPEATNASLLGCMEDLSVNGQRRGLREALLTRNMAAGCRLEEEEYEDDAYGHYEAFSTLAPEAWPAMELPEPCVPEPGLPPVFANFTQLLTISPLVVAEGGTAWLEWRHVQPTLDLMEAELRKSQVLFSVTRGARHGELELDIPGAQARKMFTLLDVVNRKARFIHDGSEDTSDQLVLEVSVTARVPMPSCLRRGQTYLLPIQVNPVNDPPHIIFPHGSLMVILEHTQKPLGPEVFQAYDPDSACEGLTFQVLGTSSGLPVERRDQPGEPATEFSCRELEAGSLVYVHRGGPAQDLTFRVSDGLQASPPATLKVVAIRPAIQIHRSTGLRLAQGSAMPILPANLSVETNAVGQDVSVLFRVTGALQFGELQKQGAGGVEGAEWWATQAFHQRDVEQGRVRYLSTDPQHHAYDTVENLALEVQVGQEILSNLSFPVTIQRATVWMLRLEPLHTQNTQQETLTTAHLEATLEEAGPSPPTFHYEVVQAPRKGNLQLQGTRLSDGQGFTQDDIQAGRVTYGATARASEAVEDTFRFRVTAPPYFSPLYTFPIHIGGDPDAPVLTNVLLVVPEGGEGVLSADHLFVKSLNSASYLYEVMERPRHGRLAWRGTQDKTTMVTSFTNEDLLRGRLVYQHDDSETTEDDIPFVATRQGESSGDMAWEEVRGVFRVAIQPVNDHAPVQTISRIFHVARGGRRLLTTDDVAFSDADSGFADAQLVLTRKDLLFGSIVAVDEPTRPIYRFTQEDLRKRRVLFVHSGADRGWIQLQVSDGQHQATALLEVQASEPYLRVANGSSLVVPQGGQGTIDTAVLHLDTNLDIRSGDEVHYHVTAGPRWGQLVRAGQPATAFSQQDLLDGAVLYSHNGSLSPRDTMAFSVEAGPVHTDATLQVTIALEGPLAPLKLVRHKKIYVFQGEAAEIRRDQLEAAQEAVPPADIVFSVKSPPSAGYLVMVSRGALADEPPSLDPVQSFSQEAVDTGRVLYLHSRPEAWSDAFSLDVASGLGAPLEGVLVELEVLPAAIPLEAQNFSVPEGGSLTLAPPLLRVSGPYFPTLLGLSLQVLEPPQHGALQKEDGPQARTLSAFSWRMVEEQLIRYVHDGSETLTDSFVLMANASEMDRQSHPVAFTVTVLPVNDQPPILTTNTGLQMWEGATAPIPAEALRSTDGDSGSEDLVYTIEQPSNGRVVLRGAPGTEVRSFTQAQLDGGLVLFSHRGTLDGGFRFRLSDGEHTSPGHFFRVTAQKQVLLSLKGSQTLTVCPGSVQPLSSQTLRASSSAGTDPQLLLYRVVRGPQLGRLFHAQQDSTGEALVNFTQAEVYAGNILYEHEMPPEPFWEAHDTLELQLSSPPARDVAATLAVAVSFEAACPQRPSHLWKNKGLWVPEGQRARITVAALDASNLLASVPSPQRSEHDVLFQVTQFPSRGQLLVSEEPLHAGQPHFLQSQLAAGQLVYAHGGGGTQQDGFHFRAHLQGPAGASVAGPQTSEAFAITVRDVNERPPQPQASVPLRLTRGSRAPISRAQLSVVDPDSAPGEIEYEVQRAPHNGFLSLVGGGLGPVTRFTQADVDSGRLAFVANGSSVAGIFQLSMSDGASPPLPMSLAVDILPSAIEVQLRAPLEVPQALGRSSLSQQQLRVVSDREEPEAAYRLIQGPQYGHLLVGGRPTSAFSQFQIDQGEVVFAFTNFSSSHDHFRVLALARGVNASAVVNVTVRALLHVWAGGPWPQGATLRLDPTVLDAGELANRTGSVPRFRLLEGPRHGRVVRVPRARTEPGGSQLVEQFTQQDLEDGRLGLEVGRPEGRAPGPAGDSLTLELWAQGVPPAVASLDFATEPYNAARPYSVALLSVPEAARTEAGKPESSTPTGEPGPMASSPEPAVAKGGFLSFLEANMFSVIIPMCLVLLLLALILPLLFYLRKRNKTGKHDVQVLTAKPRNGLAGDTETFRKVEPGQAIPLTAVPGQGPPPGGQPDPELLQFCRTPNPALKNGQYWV
Experimental: (§1) Flow Cytometry—Cells were rinsed with PBS (phosphate buffered saline, pH 7.4) and harvested with Versene (Thermo Fisher) prior to incubation with FACs buffer (PBS+1% fetal bovine serum (FBS; source BioSun) containing test antibody or ADCs for 1 h at 4° C. Cells were rinsed and washed with FACs buffer (PBS+1% FBS) and detection was performed with anti-bigG-AF488. Cells were analyzed on a FACs Canto II (BD Biosciences). Quantitative FACs (qFACs) was performed to measure the number of antigen binding sites with the DAKO QifiKit (DAKO, Carpinteria, CA), according to the manufacturer's directions.
(§2) The CSPG4+A2058 and A375 melanoma and the lung NCI-H2052 and NCI-H1975 cell lines were incubated with increasing concentrations of the antibody (6-point dose curve) for 1 hr at 4° C. Detection was done with an anti-hIgG-AF488 secondary antibody.
(§3) The data were graphed and estimated binding constants (EC50 in table) were determined with Prism (GraphPad Software, San Diego, CA).

[2] = molecular target: T1, CSPG4 (chondroitin sulfate proteoglycan …); assay: flow cytometry on A2058 melanoma cells, 8-point dose curve, anti-hIgG-AF488
Experimental: as §1
(§4) FACs binding of ARD107 antibody and corresponding conjugates to CSPG4-positive cell lines was conducted. The melanoma A2058 and Malme-3M, the SW1353 chondrosarcoma, and the NCI-H1975 lung cell lines were incubated with increasing concentrations (8-point dose curve) of the antibody, conjugates (ARD107-vcMMAE or ARD107-SN38 (ARD107-CL2A-SN-38)), or isotype control (hIgG1) for 1 hr at 4° C. Detection was done with an anti-hIgG-AF488 secondary antibody.

[3] = molecular target: T1, CSPG4 (chondroitin sulfate proteoglycan …); assay: flow cytometry on A2058 melanoma cells, 6-point dose curve, anti-hIgG-AF488
Experimental: as §1, §2, §3

[4] = molecular target: T1, CSPG4 (chondroitin sulfate proteoglycan …); assay: flow cytometry on NCI-H2052 lung cells, 6-point dose curve, anti-hIgG-AF488
Experimental: as §1, §2, §3

[5] = molecular target: T1, CSPG4 (chondroitin sulfate proteoglycan …); assay: flow cytometry on Malme-3M melanoma cells, 8-point dose curve, anti-hIgG-AF488
Experimental: as §1, §4

[6] = molecular target: T1, CSPG4 (chondroitin sulfate proteoglycan …); assay: flow cytometry on SW1353 chondrosarcoma cells, 8-point dose curve, anti-hIgG-AF488
Experimental: as §1, §4

B1: ARD107 antibody (antibody, human IgG1, kappa, V domains shown)
VH: EVQLQESGPGLVKPSQSLSLTCSVTGYSITSGYYWNWIRQFPGNKLEWMGYITYDGSNNYNPSLKNRISITRDTSKNQFFLKLNSVTTEDTATYYCADFDYWGQGTTLTVSS
VL: DIVLTQSPSSLSASLGDRVTISCSASQGIRNYLNWYQQRPDGTVKLLIYYTSSLHSGVPSRFSGSGSGTDYSLTISNLEPEDIATYYCQQYSKLPWTFGGGTKLEIKR
notes: also called unconjugated ARD107 monoclonal antibody
Work on B1 yielded an EC50 [1] of 0.19 nM, an EC50 [2] of 0.48 nM and an EC50 [3] of 0.24 nM. The EC50 [4] was 0.3 nM, the EC50 [5] was 0.59 nM and the EC50 [6] was 0.21 nM.
